According to the RNAGym collection of RNA variant scans (doi:10.7554/elife.80360):

B1: Hairpin Ribozyme (parent)
chain: GUCCUCUUUCACGUGCGCGUGAAAGAGAGAAGUGAACCAGAGAAACACACGUUGUGGUAUAUUACCUGGUA

Variants of: B1
Assay: self-cleavage, relative activity (ratio to wild type); higher = more cleavage; co-transcriptional
Variant GUCCUCUUUCACGUGCGCGUGAAAGAGAGAAGUGAACCAGAGAAACACACCUUGUGGUAUAUUACUUGGUA has a self-cleavage of 0.452. Work on GUCCUCUUUCACGUGCGCGUGAAAGAGAGAAGUGAACCAGAGAAACACACCUUGUGGUAUAUUACAUGGUA yielded a self-cleavage of 0.184. Variant GUCCUCUUUCACGUGCGCGUGAAAGAGAGAAGUGAACCAGAGAAACACACUUUGUGGUCUAUUACCUGGUA has a self-cleavage of 0.103. With GUCCUCUUUCACGUGCGCGUGAAAGAGAGAAGUGAACCAGAGAAACACACUUCGUGGUAUAUUACCUGGUA the self-cleavage was 0.777. Work on GUCCUCUUUCACGUGCGCGUGAAAGAGAGAAGUGAACCAGAGAAACACACUUAGUGGUAUAUUACCUGGUA yielded a self-cleavage of 1.07. Variant GUCCUCUUUCACGUGCGCGUGAAAGAGAGAAGUGAACCAGAGAAACACACUUUGUGGUAUAUUACCUGAUA has a self-cleavage of 0.457. GUCCUCUUUCACGUGCGCGUGAAAGAGAGAAGUGAACCAGAGAAACACACUUUGUGGUAUAUUACCUGUUA gave a self-cleavage of 0.287. GUCCUCUUUCACGUGCGCGUGAAAGAGAGAAGUGAACCAGAGAAACACACAGUGUGGUAUAUUACCUGGUA showed a self-cleavage of 0.981. GUCCUCUUUCACGUGCGCGUGAAAGAGAGAAGUGAACCAGAGAAACACACACUGUGGUAUAUUACCUGGUA showed a self-cleavage of 0.738. GUCCUCUUUCACGUGCGCGUGAAAGAGAGAAGUGAACCAGAGAAACACACGAUGUGGUAUAUAACCUGGUA gave a self-cleavage of 0.424. In the case of GUCCUCUUUCACGUGCGCGUGAAAGAGAGAAGUGAACCAGAGAAACACACGAUGUGGUAUAUCACCUGGUA, the self-cleavage is reported as 0.32. Variant GUCCUCUUUCACGUGCGCGUGAAAGAGAGAAGUGAACCAGAGAAACACACGAUGUAGUAUAUUACCUGGUA has a self-cleavage of 0.256. In the case of GUCCUCUUUCACGUGCGCGUGAAAGAGAGAAGUGAACCAGAGAAACACACAUUGUGGUAUAUUACCAGGUA, the self-cleavage is reported as 0.291. GUCCUCUUUCACGUGCGCGUGAAAGAGAGAAGUGAACCAGAGAAACACACAUUGUGGUAUAUUACCCGGUA showed a self-cleavage of 0.296. GUCCUCUUUCACGUGCGCGUGAAAGAGAGAAGUGAACCAGAGAAACACACGAUGUGGUAGAUUACCUGGUA showed a self-cleavage of 0.54. GUCCUCUUUCACGUGCGCGUGAAAGAGAGAAGUGAACCAGAGAAACACACUUUGUGGUAUAUUAGCUGGUA gave a self-cleavage of 0.354. With GUCCUCUUUCACGUGCGCGUGAAAGAGAGAAGUGAACCAGAGAAACACACAUUGUGGUAUAUUACAUGGUA the self-cleavage was 0.344. GUCCUCUUUCACGUGCGCGUGAAAGAGAGAAGUGAACCAGAGAAACACACCUAGUGGUAUAUUACCUGGUA showed a self-cleavage of 0.72. With GUCCUCUUUCACGUGCGCGUGAAAGAGAGAAGUGAACCAGAGAAACACACAUUUUGGUAUAUUACCUGGUA the self-cleavage was 0.649. GUCCUCUUUCACGUGCGCGUGAAAGAGAGAAGUGAACCAGAGAAACACACAUUAUGGUAUAUUACCUGGUA gave a self-cleavage of 0.62. With GUCCUCUUUCACGUGCGCGUGAAAGAGAGAAGUGAACCAGAGAAACACACUUUGUGGUAUAUUACCAGGUA the self-cleavage was 0.236. Variant GUCCUCUUUCACGUGCGCGUGAAAGAGAGAAGUGAACCAGAGAAACACACUUUGUGGUAUAUUACAUGGUA has a self-cleavage of 0.192. Variant GUCCUCUUUCACGUGCGCGUGAAAGAGAGAAGUGAACCAGAGAAACACACGAUGUGGUAUAUUACCUUGUA has a self-cleavage of 0.309. Work on GUCCUCUUUCACGUGCGCGUGAAAGAGAGAAGUGAACCAGAGAAACACACGAUGUGGUAUAUUACCUAGUA yielded a self-cleavage of 0.337. GUCCUCUUUCACGUGCGCGUGAAAGAGAGAAGUGAACCAGAGAAACACACGAUGUGGAAUAUUACCUGGUA gave a self-cleavage of 0.818. Work on GUCCUCUUUCACGUGCGCGUGAAAGAGAGAAGUGAACCAGAGAAACACACGAUGUGGGAUAUUACCUGGUA yielded a self-cleavage of 0.678. For GUCCUCUUUCACGUGCGCGUGAAAGAGAGAAGUGAACCAGAGAAACACACGAUGUGGCAUAUUACCUGGUA, the self-cleavage was 0.881. In the case of GUCCUCUUUCACGUGCGCGUGAAAGAGAGAAGUGAACCAGAGAAACACACGAUGUGCUAUAUUACCUGGUA, the self-cleavage is reported as 0.0886. Variant GUCCUCUUUCACGUGCGCGUGAAAGAGAGAAGUGAACCAGAGAAACACACCUUGUGGUAUAUUACCUGGUG has a self-cleavage of 0.814. GUCCUCUUUCACGUGCGCGUGAAAGAGAGAAGUGAACCAGAGAAACACACCUUGUGGUAUAUUACCUGGUC gave a self-cleavage of 1.3. GUCCUCUUUCACGUGCGCGUGAAAGAGAGAAGUGAACCAGAGAAACACACAUUGUGGCAUAUUACCUGGUA showed a self-cleavage of 1.09. Variant GUCCUCUUUCACGUGCGCGUGAAAGAGAGAAGUGAACCAGAGAAACACACCUUGUGGUAUAUUACCUGGGA has a self-cleavage of 0.704. For GUCCUCUUUCACGUGCGCGUGAAAGAGAGAAGUGAACCAGAGAAACACACAUUGUGGUAUAUUACCUGGAA, the self-cleavage was 1.09. GUCCUCUUUCACGUGCGCGUGAAAGAGAGAAGUGAACCAGAGAAACACACAUUGUGGUAUAUUACCUGGCA showed a self-cleavage of 1.1. For GUCCUCUUUCACGUGCGCGUGAAAGAGAGAAGUGAACCAGAGAAACACACCUUGUGGUAUCUUACCUGGUA, the self-cleavage was 0.0996. In the case of GUCCUCUUUCACGUGCGCGUGAAAGAGAGAAGUGAACCAGAGAAACACACCUUGUGGUUUAUUACCUGGUA, the self-cleavage is reported as 0.172. With GUCCUCUUUCACGUGCGCGUGAAAGAGAGAAGUGAACCAGAGAAACACACCUUGUGGUGUAUUACCUGGUA the self-cleavage was 0.166. GUCCUCUUUCACGUGCGCGUGAAAGAGAGAAGUGAACCAGAGAAACACACUUUGUGGUAUAUUACCUGGGA showed a self-cleavage of 0.887. Variant GUCCUCUUUCACGUGCGCGUGAAAGAGAGAAGUGAACCAGAGAAACACACUUUGUGGUAUAUUACCUGGCA has a self-cleavage of 1.01. Variant GUCCUCUUUCACGUGCGCGUGAAAGAGAGAAGUGAACCAGAGAAACACACUUUGUGGUAUAUUACCUGGAA has a self-cleavage of 1.1. GUCCUCUUUCACGUGCGCGUGAAAGAGAGAAGUGAACCAGAGAAACACACCUUGUGGUAUAUUACCUCGUA gave a self-cleavage of 0.322. GUCCUCUUUCACGUGCGCGUGAAAGAGAGAAGUGAACCAGAGAAACACACCUUGUGGUAUAUUACCUAGUA showed a self-cleavage of 0.254. Work on GUCCUCUUUCACGUGCGCGUGAAAGAGAGAAGUGAACCAGAGAAACACACUGUGUGGUAUAUUACCUGGUA yielded a self-cleavage of 0.648. For GUCCUCUUUCACGUGCGCGUGAAAGAGAGAAGUGAACCAGAGAAACACACUAUGUGGUAUAUUACCUGGUA, the self-cleavage was 1.1. GUCCUCUUUCACGUGCGCGUGAAAGAGAGAAGUGAACCAGAGAAACACACGAUGAGGUAUAUUACCUGGUA gave a self-cleavage of 0.33. With GUCCUCUUUCACGUGCGCGUGAAAGAGAGAAGUGAACCAGAGAAACACACGAUGCGGUAUAUUACCUGGUA the self-cleavage was 0.438. GUCCUCUUUCACGUGCGCGUGAAAGAGAGAAGUGAACCAGAGAAACACACAUUGUGGUAUAUUACCUGCUA showed a self-cleavage of 0.467. With GUCCUCUUUCACGUGCGCGUGAAAGAGAGAAGUGAACCAGAGAAACACACAUUGUGGUAUACUACCUGGUA the self-cleavage was 0.364. For GUCCUCUUUCACGUGCGCGUGAAAGAGAGAAGUGAACCAGAGAAACACACAUUGUGGUAUAAUACCUGGUA, the self-cleavage was 0.137. In the case of GUCCUCUUUCACGUGCGCGUGAAAGAGAGAAGUGAACCAGAGAAACACACCUUGUCGUAUAUUACCUGGUA, the self-cleavage is reported as 0.065. GUCCUCUUUCACGUGCGCGUGAAAGAGAGAAGUGAACCAGAGAAACACACCCUGUGGUAUAUUACCUGGUA showed a self-cleavage of 1.16. GUCCUCUUUCACGUGCGCGUGAAAGAGAGAAGUGAACCAGAGAAACACACGAUGUGGUAUAUUACCUGUUA showed a self-cleavage of 0.325. Work on GUCCUCUUUCACGUGCGCGUGAAAGAGAGAAGUGAACCAGAGAAACACACGAUGUGGUAUAUUACCUGAUA yielded a self-cleavage of 0.464. GUCCUCUUUCACGUGCGCGUGAAAGAGAGAAGUGAACCAGAGAAACACACGAUGUGGUAUCUUACCUGGUA gave a self-cleavage of 0.256. Work on GUCCUCUUUCACGUGCGCGUGAAAGAGAGAAGUGAACCAGAGAAACACACUUUGUGGUAUAUUACCUGGUG yielded a self-cleavage of 1.24. In the case of GUCCUCUUUCACGUGCGCGUGAAAGAGAGAAGUGAACCAGAGAAACACACUUUGUGGUAUAAUACCUGGUA, the self-cleavage is reported as 0.25. Work on GUCCUCUUUCACGUGCGCGUGAAAGAGAGAAGUGAACCAGAGAAACACACAUUGUAGUAUAUUACCUGGUA yielded a self-cleavage of 0.197. GUCCUCUUUCACGUGCGCGUGAAAGAGAGAAGUGAACCAGAGAAACACACGAUGUGGUAUAUUAGCUGGUA showed a self-cleavage of 0.258. Work on GUCCUCUUUCACGUGCGCGUGAAAGAGAGAAGUGAACCAGAGAAACACACUUUGUGGUAUCUUACCUGGUA yielded a self-cleavage of 0.109. Work on GUCCUCUUUCACGUGCGCGUGAAAGAGAGAAGUGAACCAGAGAAACACACAUUGUGGUAUAUGACCUGGUA yielded a self-cleavage of 0.135. For GUCCUCUUUCACGUGCGCGUGAAAGAGAGAAGUGAACCAGAGAAACACACGAUCUGGUAUAUUACCUGGUA, the self-cleavage was 0.47. For GUCCUCUUUCACGUGCGCGUGAAAGAGAGAAGUGAACCAGAGAAACACACGAUUUGGUAUAUUACCUGGUA, the self-cleavage was 0.64. For GUCCUCUUUCACGUGCGCGUGAAAGAGAGAAGUGAACCAGAGAAACACACAUCGUGGUAUAUUACCUGGUA, the self-cleavage was 1.28. Work on GUCCUCUUUCACGUGCGCGUGAAAGAGAGAAGUGAACCAGAGAAACACACUUUGUUGUAUAUUACCUGGUA yielded a self-cleavage of 0.0869. In the case of GUCCUCUUUCACGUGCGCGUGAAAGAGAGAAGUGAACCAGAGAAACACACUUUGUAGUAUAUUACCUGGUA, the self-cleavage is reported as 0.153. Variant GUCCUCUUUCACGUGCGCGUGAAAGAGAGAAGUGAACCAGAGAAACACACUUUGUGGCAUAUUACCUGGUA has a self-cleavage of 0.982. With GUCCUCUUUCACGUGCGCGUGAAAGAGAGAAGUGAACCAGAGAAACACACUUUGUGGGAUAUUACCUGGUA the self-cleavage was 0.797. For GUCCUCUUUCACGUGCGCGUGAAAGAGAGAAGUGAACCAGAGAAACACACUUUGUGGUAUAUUGCCUGGUA, the self-cleavage was 0.544. In the case of GUCCUCUUUCACGUGCGCGUGAAAGAGAGAAGUGAACCAGAGAAACACACUUUGUGGUAUAUUACCUAGUA, the self-cleavage is reported as 0.312. Variant GUCCUCUUUCACGUGCGCGUGAAAGAGAGAAGUGAACCAGAGAAACACACUUUGUGGUAUAUUACCUCGUA has a self-cleavage of 0.274. GUCCUCUUUCACGUGCGCGUGAAAGAGAGAAGUGAACCAGAGAAACACACUUUGUGGUAUAUUACCUGGUA gave a self-cleavage of 1.03. In the case of GUCCUCUUUCACGUGCGCGUGAAAGAGAGAAGUGAACCAGAGAAACACACCUUGUGGUAUAUUACCUGGUA, the self-cleavage is reported as 0.876. GUCCUCUUUCACGUGCGCGUGAAAGAGAGAAGUGAACCAGAGAAACACACGAUGUGGUAUAUUGCCUGGUA gave a self-cleavage of 0.603. Work on GUCCUCUUUCACGUGCGCGUGAAAGAGAGAAGUGAACCAGAGAAACACACGAUGUGGUAUAUUCCCUGGUA yielded a self-cleavage of 0.253. Work on GUCCUCUUUCACGUGCGCGUGAAAGAGAGAAGUGAACCAGAGAAACACACCUUGUGGUAGAUUACCUGGUA yielded a self-cleavage of 0.62. In the case of GUCCUCUUUCACGUGCGCGUGAAAGAGAGAAGUGAACCAGAGAAACACACCUUGUGGUAUAUUACCAGGUA, the self-cleavage is reported as 0.123.
